From patent US20120070451

Test system: Cavβ2 (Ca2+ beta2 channel accessory subunit), endogenous, mouse heart

For recombinant active Akt, the “in vitro kinase assay: Cavβ2-immunoprecipitates from cardiac homogenates incubated with recombinant active Akt and [γ-32]ATP” value was “A band corresponding to phosphorylated Cavβ2 was detected only in the presence of the kinase”.
